Laboratory results: patent US20110070185A1 (Janssen / Centocor, published 2011)

B1: P3-5 (peptide)
peptide: SLVLNLL
notes: synthetic truncated peptide; also called SLVLNLL
B2: P3-6 (peptide)
peptide: SLVLNL
notes: synthetic truncated peptide; also called SLVLNL
B3: P3-7 (peptide)
peptide: SLVLNLL
notes: as for B1
B4: P3-8 (peptide)
peptide: LVLNLLE
notes: synthetic truncated peptide; also called LVLNLLE
B5: P13-4 (peptide)
peptide: LPGMTKV
notes: synthetic truncated peptide; also called LPGMTKV
B6: P13-5 (peptide)
peptide: PGMTKV
notes: synthetic truncated peptide; also called PGMTKV
B7: P13-9 (peptide)
peptide: TLVDLPG
notes: synthetic truncated peptide; also called TLVDLPG
B8: P14-9 (peptide)
peptide: TLIDLPG
notes: synthetic truncated peptide; also called TLIDLPG
B9: P13-10 (peptide)
peptide: TLVDLP
notes: synthetic truncated peptide; also called TLVDLP
B10: P14-10 (peptide)
peptide: TLIDLP
notes: synthetic truncated peptide; also called TLIDLP
B11: P13-14 (peptide)
peptide: VDLPGMT
notes: synthetic truncated peptide; also called VDLPGMT
B12: P13-15 (peptide)
peptide: DLPGMTK
notes: synthetic truncated peptide; also called DLPGMTK
B13: P14-4 (peptide)
peptide: LPGITRV
notes: synthetic truncated peptide; also called LPGITRV
B14: P14-5 (peptide)
peptide: PGITRV
notes: synthetic truncated peptide; also called PGITRV
B15: P14-17 (peptide)
peptide: DLPGITR
notes: synthetic truncated peptide; also called DLPGITR
B16: P3-2 (peptide)
peptide: VLNLLEL
notes: synthetic truncated peptide; also called VLNLLEL
B17: P3-3 (peptide)
peptide: LNLLEL
notes: synthetic truncated peptide; also called LNLLEL
B18: P2 (peptide)
peptide: LLPGRTVLV
notes: synthetic peptide; also called peptide 2
B19: P4 (peptide)
peptide: RSLFLLYAL
notes: synthetic peptide; also called peptide 4; RSLFLLYAL
B20: P18 (peptide)
peptide: LKNKLKDLGH
notes: synthetic peptide; also called peptide 18
B21: P19 (peptide)
peptide: NLKAALENLGAL
notes: synthetic peptide; also called peptide 19; NLKAALENLGAL
B22: P24 (peptide)
peptide: LKIHAREIFD
notes: synthetic peptide; also called peptide 24

Target: T1, HLA-A2 molecules in T2 cells (human)
T1 construct: whole, on cells; Target of the HLA-A2 Stabilization Assay; also called MHC class I, HLA-A2; MHC/HLA-A2
Experiment: HLA-A2 stabilization assay on T2 cells

Question: Does B1 bind?
Answer: no binding

Question: Does B2 bind?
Answer: no binding

Question: Does B3 bind?
Answer: no binding

Question: Does B4 bind?
Answer: no binding

Question: Does LVDLPGMTKV (synthetic truncated peptide) [P13-1] bind?
Answer: no binding

Question: Does VDLPGMTKV (synthetic truncated peptide) [P13-2] bind?
Answer: no binding

Question: Does DLPGMTKV (synthetic truncated peptide) [P13-3] bind?
Answer: no binding

Question: Does B5 bind?
Answer: no binding

Question: Does B6 bind?
Answer: no binding

Question: Does TLVDLPGMTK (synthetic truncated peptide) [P13-6] bind?
Answer: no binding

Question: Does TLVDLPGMT (synthetic truncated peptide) [P13-7] bind?
Answer: no binding

Question: Does TLVDLPGM (synthetic truncated peptide) [P13-8] bind?
Answer: no binding

Question: Does B7 bind?
Answer: no binding

Question: Does B8 bind?
Answer: no binding

Question: Does B9 bind?
Answer: no binding

Question: Does B10 bind?
Answer: no binding

Question: Does LVDLPGMT (synthetic truncated peptide) [P13-11] bind?
Answer: no binding

Question: Does VDLPGMTK (synthetic truncated peptide) [P13-12] bind?
Answer: no binding

Question: Does B11 bind?
Answer: no binding

Question: Does B12 bind?
Answer: no binding

Question: Does LIDLPGITRV (synthetic truncated peptide) [P14-1] bind?
Answer: no binding

Question: Does IDLPGITRV (synthetic truncated peptide) [P14-2] bind?
Answer: no binding

Question: Does DLPGITRV (synthetic truncated peptide) [P14-3] bind?
Answer: no binding

Question: Does B13 bind?
Answer: no binding

Question: Does B14 bind?
Answer: no binding

Question: Does TLIDLPGITR (synthetic truncated peptide) [P14-6] bind?
Answer: no binding

Question: Does TLIDLPGIT (synthetic truncated peptide) [P14-7] bind?
Answer: no binding

Question: Does TLIDLPGI (synthetic truncated peptide) [P14-8] bind?
Answer: no binding

Question: Does TLIDLPGIT (synthetic truncated peptide) [P14-11] bind?
Answer: no binding

Question: Does LIDLPGITR (synthetic truncated peptide) [P14-12] bind?
Answer: no binding

Question: Does LIDLPGIT (synthetic truncated peptide) [P14-13] bind?
Answer: no binding

Question: Does B15 bind?
Answer: no binding

Question: Does LVLNLLEL (synthetic truncated peptide) [P3-1] bind?
Answer: no binding

Question: Does B16 bind?
Answer: no binding

Question: Does B17 bind?
Answer: no binding

Question: Does SLVLNLLE (synthetic truncated peptide) [P3-4] bind?
Answer: no binding

Target: T1, HLA-A2 molecules in T2 cells
Experiment: HLA-A2 stabilization assay on T2 cells
Remark: another data set of the same source

Question: Does FMLQTYGQQL (synthetic computer predicted peptide) [P14-18] bind?
Answer: no binding

Target: T1, HLA-A2 molecules in T2 cells
Experiment: HLA-A2 stabilization assay on T2 cells, flow cytometry with FITC anti-HLA-A2

Question: Does B18 bind?
Answer: no binding (tested: up to 200 uM)

Question: Does B19 bind?
Answer: no binding (tested: up to 200 uM)

Question: Does B20 bind?
Answer: no binding (tested: up to 200 uM)

Question: Does B21 bind?
Answer: no binding (tested: up to 200 uM)

Question: Does B22 bind?
Answer: no binding (tested: up to 200 uM)
